# Assay results reported in the supplement of paper PMC11316812.
# ± gives the standard deviation of the averaged measurements.
# How the values were obtained:
# MCF7 = experiment: percentage of EdU-negative (G0-arrested) nuclei per well, 72 h; higher = more G0 arrest; settings: reference: sequence is the full UniProt precursor, the tested protein was the secreted form or ectodomain
# hTERT-HMEC = experiment: as above; settings: reference: sequence is the full UniProt precursor, the tested protein was the secreted form or ectodomain
# [1] = protein concentration 0.03125 µM
# [2] = protein concentration 0.3125 µM
# [3] = protein concentration 0.013725 µM
# [4] = protein concentration 0.13725 µM
# [5] = protein concentration 0.0225 µM
# [6] = protein concentration 0.0245 µM
# 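Also: secreted proteins added to cultured cells, EdU pulse at the end, nuclei found by Hoechst imaging, EdU status from nuclear versus surrounding ring intensity ratio, PBS as neutral control.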
sequence,measurement,setting,value
MVLLWLTLLLIALPCLLQTKEDPNPPITNLRMKAKAQQLTWDLNRNVTDIECVKDADYSMPAVNNSYCQFGAISLCEVTNYTVRVANPPFSTWILFPENSGKPWAGAENLTCWIHDVDFLSCSWAVGPGAPADVQYDLYLNVANRRQQYECLHYKTDAQGTRIGCRFDDISRLSSGSQSSHILVRGRSAAFGIPCTDKFVVFSQIEILTPPNMTAKCNKTHSFMHWKMRSHFNRKFRYELQIQKRMQPVITEQVRDRTSFQLLNPGTYTVQIRARERVYEFLSAWSTPQRFECDQEEGANTRAWRTSLLIALGTLLALVCVFVICRRYLVMQRLFPRIPHMKDPIGDSFQNDKLVVWEAGKAGLEECLVTEVQVVQKT,percentage of EdU-negative,MCF7; [1],26.3 ± 2.9%
same,percentage of EdU-negative,MCF7; [2],30.4 ± 0.99%
same,percentage of EdU-negative,hTERT-HMEC; [1],4.403 ± 0.019%
same,percentage of EdU-negative,hTERT-HMEC; [2],5.4 ± 0.13%
MYSAPSACTCLCLHFLLLCFQVQVLVAEENVDFRIHVENQTRARDDVSRKQLRLYQLYSRTSGKHIQVLGRRISARGEDGDKYAQLLVETDTFGSQVRIKGKETEFYLCMNRKGKLVGKPDGTSKECVFIEKVLENNYTALMSAKYSGWYVGFTKKGRPRKGPKTRENQQDVHFMKRYPKGQPELQKPFKYTTVTKRSRRIRPTHPA,percentage of EdU-negative,MCF7; [3],24.26 ± 0.046%
same,percentage of EdU-negative,MCF7; [4],22.8 ± 0.92%
same,percentage of EdU-negative,hTERT-HMEC; [3],4.7 ± 1.1%
same,percentage of EdU-negative,hTERT-HMEC; [4],5.41 ± 0.5%
MAPLRPLLILALLAWVALADQESCKGRCTEGFNVDKKCQCDELCSYYQSCCTDYTAECKPQVTRGDVFTMPEDEYTVYDDGEEKNNATVHEQVGGPSLTSDLQAQSKGNPEQTPVLKPEEEAPAPEVGASKPEGIDSRPETLHPGRPQPPAEEELCSGKPFDAFTDLKNGSLFAFRGQYCYELDEKAVRPGYPKLIRDVWGIEGPIDAAFTRINCQGKTYLFKGSQYWRFEDGVLDPDYPRNISDGFDGIPDNVDAALALPAHSYSGRERVYFFKGKQYWEYQFQHQPSQEECEGSSLSAVFEHFAMMQRDSWEDIFELLFWGRTSAGTRQPQFISRDWHGVPGQVDAAMAGRIYISGMAPRPSLAKKQRFRHRNRKGYRSQRGHSRGRNQNSRRPSRATWLSLFSSEESNLGANNYDDYRMDWLVPATCEPIQSVFFFSGDKYYRVNLRTRRVDTVDPPYPRSIAQYWLGCPAPGHL,percentage of EdU-negative,MCF7; [5],25.1 ± 3.1%
same,percentage of EdU-negative,MCF7; protein concentration 0.225 µM,31.11 ± 0.19%
same,percentage of EdU-negative,hTERT-HMEC; [5],5.37 ± 0.14%
same,percentage of EdU-negative,hTERT-HMEC; protein concentration 0.225 µM,4.7 ± 1.1%
MTLFPVLLFLVAGLLPSFPANEDKDPAFTALLTTQTQVQREIVNKHNELRRAVSPPARNMLKMEWNKEAAANAQKWANQCNYRHSNPKDRMTSLKCGENLYMSSASSSWSQAIQSWFDEYNDFDFGVGPKTPNAVVGHYTQVVWYSSYLVGCGNAYCPNQKVLKYYYVCQYCPAGNWANRLYVPYEQGAPCASCPDNCDDGLCTNGCKYEDLYSNCKSLKLTLTCKHQLVRDSCKASCNCSNSIY,percentage of EdU-negative,MCF7; [5],24.2 ± 0.4%
same,percentage of EdU-negative,MCF7; protein concentration 0.225 µM,27.5 ± 3%
same,percentage of EdU-negative,hTERT-HMEC; [5],4.68 ± 0.23%
same,percentage of EdU-negative,hTERT-HMEC; protein concentration 0.225 µM,4.83 ± 0.81%
MGTPRIQHLLILLVLGASLLTSGLELYCQKGLSMTVEADPANMFNWTTEEVETCDKGALCQETILIIKAGTETAILATKGCIPEGEEAITIVQHSSPPGLIVTSYSNYCEDSFCNDKDSLSQFWEFSETTASTVSTTLHCPTCVALGTCFSAPSLPCPNGTTRCYQGKLEITGGGIESSVEVKGCTAMIGCRLMSGILAVGPMFVREACPHQLLTQPRKTENGATCLPIPVWGLQLLLPLLLPSFIHFS [Q9BY14],percentage of EdU-negative,MCF7; [6],25.5 ± 2%
same,percentage of EdU-negative,MCF7; protein concentration 0.245 µM,26.5 ± 0.59%
same,percentage of EdU-negative,hTERT-HMEC; [6],5.14 ± 0.066%
same,percentage of EdU-negative,hTERT-HMEC; protein concentration 0.245 µM,5.33 ± 0.8%
MALSFSLLMAVLVLSYKSICSLGCDLPQTHSLGNRRALILLAQMGRISPFSCLKDRHDFGFPQEEFDGNQFQKAQAISVLHEMIQQTFNLFSTKDSSATWEQSLLEKFSTELNQQLNDLEACVIQEVGVEETPLMNVDSILAVKKYFQRITLYLTEKKYSPCAWEVVRAEIMRSFSLSKIFQERLRRKE,percentage of EdU-negative,MCF7; [1],46.7 ± 0.98%
same,percentage of EdU-negative,MCF7; [2],47.89 ± 0.27%
same,percentage of EdU-negative,hTERT-HMEC; [1],15.2 ± 2.2%
same,percentage of EdU-negative,hTERT-HMEC; [2],17.64 ± 0.089%
MALWRGSAYAGFLALAVGCVFLLEPELPGSALRSLWSSLCLGPAPAPPGPVSPEGRLAAAWDALIVRPVRRWRRVAVGVNACVDVVLSGVKLLQALGLSPGNGKDHSILHSRNDLEEAFIHFMGKGAAAERFFSDKETFHDIAQVASEFPGAQHYVGGNAALIGQKFAANSDLKVLLCGPVGPKLHELLDDNVFVPPESLQEVDEFHLILEYQAGEEWGQLKAPHANRFIFSHDLSNGAMNMLEVFVSSLEEFQPDLVVLSGLHMMEGQSKELQRKRLLEVVTSISDIPTGIPVHLELASMTNRELMSSIVHQQVFPAVTSLGLNEQELLFLTQSASGPHSSLSSWNGVPDVGMVSDILFWILKEHGRSKSRASDLTRIHFHTLVYHILATVDGHWANQLAAVAAGARVAGTQACATETIDTSRVSLRAPQEFMTSHSEAGSRIVLNPNKPVVEWHREGISFHFTPVLVCKDPIRTVGLGDAISAEGLFYSEVHPHY [Q9BRR6],percentage of EdU-negative,MCF7; [5],24.8 ± 1%
same,percentage of EdU-negative,MCF7; protein concentration 0.225 µM,24 ± 2.1%
same,percentage of EdU-negative,hTERT-HMEC; [5],4.76 ± 0.58%
same,percentage of EdU-negative,hTERT-HMEC; protein concentration 0.225 µM,5.82 ± 0.78%
